Tests used:
[1] = HA IP, anti-phospho-Ser/Thr WB; details: glycan lost; control: FOXA1WT, untreated
[2] = cycloheximide chase, WB, MCF-7 FOXA1 KO; details: glycan lost; control: FOXA1WT
[3] = WB of HA-FOXA1 protein level; details: control: untreated HA-FOXA1WT cells
HA IP, anti-ubiquitin WB = details: control: untreated HA-FOXA1WT cells

B1: FOXA1: FOXA13A (protein)
parent chain: MLGTVKMEGHETSDWNSYYADTQEAYSSVPVSNMNSGLGSMNSMNTYMTMNTMTTSGNMTPASFNMSYANPGLGAGLSPGAVAGMPGGSAGAMNSMTAAGVTAMGTALSPSGMGAMGAQQAASMNGLGPYAAAMNPCMSPMAYAPSNLGRSRAGGGGDAKTFKRSYPHAKPPYSYISLITMAIQQAPSKMLTLSEIYQWIMDLFPYYRQNQQRWQNSIRHSLSFNDCFVKVARSPDKPGKGSYWTLHPDSGNMFENGCYLRRQKRFKCEKQPGAGGGGGSGSGGSGAKGGPESRKDPSGASNPSADSPLHRGVHGKTGQLEGAPAPGPAASPQTLDHSGATATGGASELKTPASSTAPPISSGPGALASVPASHPAHGLAPHESQLHLKGDPHYSFNHPFSINNLMSSSEQQHKLDFKAYEQALQYSPYGSTLPASLPLGSASVTTRSPIEPSALEPAYYQGVYSRPVLNTS
[1]
  other: serine/threonine phosphorylation: decreases
[2]
  degradation_or_half_life: increases

B2: FOXA1: TMG (protein)
parent chain: B1 parent chain
[3]; glycan gained
  expression_or_secretion: decreases
HA IP, anti-ubiquitin WB; glycan gained
  other: ubiquitination: increases

B3: FOXA1: OSMI-4 (protein)
parent chain: B1 parent chain
[1]
  other: serine/threonine phosphorylation: decreases
[3]; glycan lost
  expression_or_secretion: increases
HA IP, anti-ubiquitin WB; glycan lost
  other: ubiquitination: decreases

Reference: paper PMC10438466
